# * marks the point of attachment. Dnp = O=[N+]([O-])c1ccc(*)c([N+](=O)[O-])c1; Mca = COc1ccc2c(CC(=O)*)cc(=O)oc2c1
# How the values were obtained:
# caspase 3 [1] = biological target: T1, caspase 3 (Homo sapiens, UniProt P42574); assay: Selection of the optimal fluorescent substrate; assay type: biochemical
# T1 construct: endogenous in cells; host or cells: cell lysates with and without camptothecin induction (cell model U937/CAM)
# T1 sequence (P42574 29-175 limits assumed): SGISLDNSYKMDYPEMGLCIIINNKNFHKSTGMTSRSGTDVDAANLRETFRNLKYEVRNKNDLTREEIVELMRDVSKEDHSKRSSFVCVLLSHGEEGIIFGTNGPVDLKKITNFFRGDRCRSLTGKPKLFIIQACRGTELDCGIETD
# T1 sequence (P42574 176-277 limits assumed): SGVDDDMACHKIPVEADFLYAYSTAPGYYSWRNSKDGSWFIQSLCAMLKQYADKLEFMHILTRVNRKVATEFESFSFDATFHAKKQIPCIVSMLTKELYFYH
# Protocol: Three fluorescent substrates were tested. They are acetyl-Asp-Glu-Val-Asp-7-amido-4-trifluoromethyl-coumarin (AFC), acetyl-Asp-Glu-Val-Asp-7-amido-4-methyl-coumarin (AMC) and (7-methoxycoumarin-4-yl)acetyl-Asp-Glu-Val-Asp-Ala-Pro-Lys(2,4-dinitrophenyl)OH (Mca). The three substrates were compared with one another using the assessment criteria i) background ii) signal level and iii) signal ratio from ± induction.
# caspase 3 [2] = assay: Caspase 3 activation in camptothecin-treated U937 cells, antibody capture and Ac-DEVD-AFC cleavage; assay type: cell-based, human; conditions: U937 5×10^5 cells/ml, 4 μg/ml camptothecin, after 2 h
# Protocol: In order to induce apoptosis in a cellular system, human cells (U937; human histiolytic lymphoma […]) were treated with camptothecin (Topoisomerase I inhibitor, chemotherapeutic agent). […] In order to detect the protease activated by apoptosis (caspase 3), ca. 10^6 cells were withdrawn from the treated cell culture and lysed in lysis buffer (50 mM NaPO4, 10 mM NaCl, 1 mM […], 0.25% (w/v) Nonidet P40, 0.3 mM EDTA; pH 7.8) on ice. The lysate is then contacted with an antibody directed against caspase 3 which is coupled to a solid phase and binds caspase 3 from the lysate for the specific caspase 3 analysis. After removing the supernatant (contains all unspecific components and enzymes), a substrate (50 μM Ac-DEVD-AFC) is added and its caspase 3 mediated substrate conversion is measured by the formation of the fluorescent coumarin cleavage product. After subtraction of the blank value (self fluorescence of the substrate without lysate addition), the kinetic course of the caspase 3 activity can be shown graphically (FIG. 1).
signal level (caspase 3 [1]),signal ratio from ± induction (caspase 3 [1]),background (self-fluorescence of the substrate without lysate addition) (caspase 3 [1]),Compound,protease activity (caspase 3) (caspase 3 [2])
low signal levels,somewhat better ratio,,"(7-methoxycoumarin-4-yl)acetyl-Asp-Glu-Val-Asp-Ala-Pro-Lys(2,4-dinitrophenyl)OH (Mca-DEVDAPK(Dnp)-OH; SMILES COc1ccc2c(CC(=O)N[C@@H](CC(=O)O)C(=O)N[C@@H](CCC(=O)O)C(=O)N[C@H](C(=O)N[C@@H](CC(=O)O)C(=O)N[C@@H](C)C(=O)N3CCC[C@H]3C(=O)N[C@@H](CCCCNc3ccc([N+](=O)[O-])cc3[N+](=O)[O-])C(=O)O)C(C)C)cc(=O)oc2c1)",
very good signal yield,optimal ratio,,acetyl-Asp-Glu-Val-Asp-7-amido-4-trifluoromethyl-coumarin [AFC],
,,,CC[C@@]1(O)C(=O)OCc2c1cc1n(c2=O)Cc2cc3ccccc3nc2-1 [camptothecin],increase of protease activity
highest signals,,relatively high,acetyl-Asp-Glu-Val-Asp-7-amido-4-methyl-coumarin [AMC],
